Results taken from PMC12854727.

Assays:
[1] = target: cleaved human TMPRSS2 ectodomain harboring the S441A residue substitution and a C379-T447C disulfide bond (UniProt O15393); test: BLI; details: 100 nM TMPRSS2 S441A for 200 seconds followed by dissociation for 400 seconds; RBD on SA biosensors; value read at 200 s; parent: est. 0.53; read off a plot
[2] = target: human TMPRSS2 ectodomain harboring S441, the DS mutation, SUMO and the N249 glycan (self-activating; wildtype of Figure 4C) (human) (UniProt O15393); test: enzyme inhibition kinetics (peptidase assay, competitive inhibition fit); 5 nM TMPRSS2 with serial dilutions of Boc-QAR-AMC substrate in the presence of 215, 72 or 24 nM HKU1 RBD, 22 °C; TMPRSS2 incubated 2 minutes with the RBD before substrate
[3] = target: HKU1 isolate N1 (genotype A) RBD, wildtype, biotinylated (avi tag) (UniProt Q5MQD0); test: BLI; details: read off a plot; for percent of parent: area under the binding response curve
[4] = 100 nM TMPRSS2 mutants for 200 seconds followed by dissociation for 400 seconds, RBD on SA biosensors, value read at 200 s, parent: est. 0.50

Substance | percent of parent ([3]; 100 nM TMPRSS2) [% WT] | further results
HKU1 isolate N1 (genotype A) RBD, wildtype, biotinylated (avi tag) (from UniProt Q5MQD0) E505A | – | response [1]: 0.36 nm
HKU1 isolate N1 (genotype A) RBD, wildtype, biotinylated (avi tag) (from UniProt Q5MQD0) H488A | – | response [1]: 0.18 nm
HKU1 isolate N1 (genotype A) RBD, wildtype, biotinylated (avi tag) (from UniProt Q5MQD0) L510A | – | response [1]: 0 nm
HKU1 isolate N1 (genotype A) RBD, wildtype, biotinylated (avi tag) (from UniProt Q5MQD0) R517A | – | response [1]: 0.022 nm
HKU1 isolate N1 (genotype A) RBD, wildtype, biotinylated (avi tag) (from UniProt Q5MQD0) V509A | – | response [1]: 0.1 nm
HKU1 isolate N1 (genotype A) RBD, wildtype, biotinylated (avi tag) (from UniProt Q5MQD0) W515A | – | response [1]: 0 nm
HKU1 isolate N1 (genotype A) RBD, wildtype, biotinylated (avi tag) (from UniProt Q5MQD0) Y528A | – | response [1]: 0.11 nm
HKU1 isolate N1 (genotype A) RBD, wildtype, without avi tag (from UniProt Q5MQD0 320-614) (domain or fragment) | – | Ki [2]: 38 nM
House Mouse TMPRSS2 ectodomain S441A | – | response ([3]; 100 nM TMPRSS2, area under the binding response curve normalised to human WT TMPRSS2, not to the mouse parent): 19 % WT
S441A House Mouse TMPRSS2 ectodomain (DS mutation, SUMO, N249 glycan) S412N | – | response ([3]; 100 nM TMPRSS2, area under the binding response curve normalised to human WT TMPRSS2, not to the mouse parent, parent: est. 19): 38 % WT
human TMPRSS2 ectodomain harboring S441, the DS mutation, SUMO and the N249 glycan (self-activating; wildtype of Figure 4C) (from UniProt O15393) A468P | 95 | –
human TMPRSS2 ectodomain harboring S441, the DS mutation, SUMO and the N249 glycan (self-activating; wildtype of Figure 4C) (from UniProt O15393) D417N | 15 | –
human TMPRSS2 ectodomain harboring S441, the DS mutation, SUMO and the N249 glycan (self-activating; wildtype of Figure 4C) (from UniProt O15393) K340D | 57 | –
human TMPRSS2 ectodomain harboring S441, the DS mutation, SUMO and the N249 glycan (self-activating; wildtype of Figure 4C) (from UniProt O15393) L419A | 4.1 | –
human TMPRSS2 ectodomain harboring S441, the DS mutation, SUMO and the N249 glycan (self-activating; wildtype of Figure 4C) (from UniProt O15393) L419M | 51 | –
human TMPRSS2 ectodomain harboring S441, the DS mutation, SUMO and the N249 glycan (self-activating; wildtype of Figure 4C) (from UniProt O15393) R409K | 81 | –
human TMPRSS2 ectodomain harboring S441, the DS mutation, SUMO and the N249 glycan (self-activating; wildtype of Figure 4C) (from UniProt O15393) R409T | 79 | –
human TMPRSS2 ectodomain harboring S441, the DS mutation, SUMO and the N249 glycan (self-activating; wildtype of Figure 4C) (from UniProt O15393) R413K | 77 | –
human TMPRSS2 ectodomain harboring S441, the DS mutation, SUMO and the N249 glycan (self-activating; wildtype of Figure 4C) (from UniProt O15393) R413V | 85 | –

Substance | percent of parent ([3]; 100 nM TMPRSS2) [% WT] | further results
human TMPRSS2 ectodomain harboring S441, the DS mutation, SUMO and the N249 glycan (self-activating; wildtype of Figure 4C) (from UniProt O15393) R470K | 1.6 | –
human TMPRSS2 ectodomain harboring S441, the DS mutation, SUMO and the N249 glycan (self-activating; wildtype of Figure 4C) (from UniProt O15393) S412N | 110 | –
human TMPRSS2 ectodomain harboring S441, the DS mutation, SUMO and the N249 glycan (self-activating; wildtype of Figure 4C) (from UniProt O15393) S412N; Y469L | 81 | –
human TMPRSS2 ectodomain harboring S441, the DS mutation, SUMO and the N249 glycan (self-activating; wildtype of Figure 4C) (from UniProt O15393) S441A | – | percent of parent ([3]; 100 nM TMPRSS2, Not activated: uncleaved S441A TMPRSS2): 1.4 % WT; percent of parent ([3]; 100 nM TMPRSS2, cleaved (activated by enterokinase)): 100 % WT
human TMPRSS2 ectodomain harboring S441, the DS mutation, SUMO and the N249 glycan (self-activating; wildtype of Figure 4C) (from UniProt O15393) S463F | 1.6 | –
human TMPRSS2 ectodomain harboring S441, the DS mutation, SUMO and the N249 glycan (self-activating; wildtype of Figure 4C) (from UniProt O15393) S463T | 2 | –
human TMPRSS2 ectodomain harboring S441, the DS mutation, SUMO and the N249 glycan (self-activating; wildtype of Figure 4C) (from UniProt O15393) S463Y | 1.5 | –
human TMPRSS2 ectodomain harboring S441, the DS mutation, SUMO and the N249 glycan (self-activating; wildtype of Figure 4C) (from UniProt O15393) T341S | 85 | –
human TMPRSS2 ectodomain harboring S441, the DS mutation, SUMO and the N249 glycan (self-activating; wildtype of Figure 4C) (from UniProt O15393) V415I | 71 | –
human TMPRSS2 ectodomain harboring S441, the DS mutation, SUMO and the N249 glycan (self-activating; wildtype of Figure 4C) (from UniProt O15393) Y414L | 2.5 | –
human TMPRSS2 ectodomain harboring S441, the DS mutation, SUMO and the N249 glycan (self-activating; wildtype of Figure 4C) (from UniProt O15393) Y414R | 3.9 | –
human TMPRSS2 ectodomain harboring S441, the DS mutation, SUMO and the N249 glycan (self-activating; wildtype of Figure 4C) (from UniProt O15393) Y414S | 28 | –
human TMPRSS2 ectodomain harboring S441, the DS mutation, SUMO and the N249 glycan (self-activating; wildtype of Figure 4C) (from UniProt O15393) Y469L | 130 | –
human TMPRSS2 ectodomain harboring S441, the DS mutation, SUMO and the N249 glycan (self-activating; wildtype of Figure 4C) (from UniProt O15393) Y469N | 10 | –
human TMPRSS2 ectodomain with S441 and the C379-T447C disulfide bond (wildtype of Figure 2F) (from UniProt O15393) R470A | – | response [3, 4]: 0.14 nm
human TMPRSS2 ectodomain with S441 and the C379-T447C disulfide bond (wildtype of Figure 2F) (from UniProt O15393) W461A | – | response [3, 4]: 0 nm
human TMPRSS2 ectodomain with S441 and the C379-T447C disulfide bond (wildtype of Figure 2F) (from UniProt O15393) Y414A | – | response [3, 4]: 0.1 nm
human TMPRSS2 ectodomain with S441 and the C379-T447C disulfide bond (wildtype of Figure 2F) (from UniProt O15393) Y469A | – | response [3, 4]: 0.36 nm
